Drawing on patent US5851983, this text covers IC50 for one molecule.

No end group written: not given here.

The target in this test is Polymorphonuclear leukocyte elastase from human sputum (EPC Co.; Funakoshi Yakuhin) (human) (UniProt P08246).

B1: by-product oligomer formed in Example 17 (peptide)
chain: RKPGKCPVTYGQCLMLNPPNFCEMDGQCKRDLKCCMGMCGKSCVSPVKA
modifications: also: oligomer formed during refolding, number of chains and linkages not given here
For orientation: IC50 means the concentration needed to halve the response being measured. Low readings indicate greater potency, high ones weaker potency. In turn, B1 returned an IC50 of 300 nM.
